assay: yeast display, Sf9 membrane polyspecificity reagent, FACS + sequencing; frameworks hold sequencing errors
Method in brief: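 In a synthetic yeast display library (Saccharomyces cerevisiae BJ5465), nanobody expression was induced with galactose for 36–48 hours. FACS gates were set low and high (top ~1%) using anti-HA fluorescence for expression and streptavidin fluorescence for binding of the Sf9 membrane reagent. Each polyreactivity label is drawn from the gate of origin.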

| Sequence | polyreactivity (PSR sort gate) |
| --- | --- |
| QVKLVESGGGLVQAGASLRLSCAASGIISYGNAMGRYRQAPGKERELVASISGISGSTYYADSVKGRFTISRDNAKNTVYLQMNSLKPEDTAVYYCNARYPTYRASYHGDYWGQGTQVTVSS | low polyreactivity |
| QVKLVESGGGLVQAGCSLRLSCAASGFIFRSYAMGWYRQAPRKERELVAVISRRGVNTHYADSVKGRFTISRDNAKNTVYLQMNSLKPEDTAVYYCAKGLSALGDYWGQGTQVTVSS | high polyreactivity |
| QVKLVESGGGLVQAGGSLRFSCAASGSTFTKNARGWYRQAPGKERELVAGISRSGGNTYYADSVMGRFTISRDNSKNTVYLQLNRLKPEDTAVSYCAKVVRGIDSNLDDYWGQGTQVTVSS | high polyreactivity |
| QVKLVESGGGLVQAGGSLRFTCAASGRTFGSNAMGWYRQAPGKERELVAVITTSGGSTYYADSVKGRFTISRDNAKNTVYLQMISLKPEDTAVYSCAKRVATGYKSYGYGYWGQGTQVTVSS | high polyreactivity |
| QVKLVESGGGLVQAGGSLRLSCAASGFIFSNNAMGWYRQAPGKEMELVAAITWNGGRTYYADSVKGRFTISRDNAKNTVYLQMNSLKQVDTAVYYCAAGRYYPLFYYWGLGTQVTVSS | high polyreactivity |
| QVKLVESGGGLVQAGGSLRLSCAASGFTFISNAMGWYRQAPGKERELVAAISSSGGRTYYADSVKGRFTISRDNAKNTVYLQMNSLKPEDTAVYYCNADRSLLYSRKIEYDYWGQGTQVTVSS | low polyreactivity |
| QVKLVESGGGLVQAGGSLRLSCAASGFTIRSYFIVWNRQAPGKERELVAAITRRGGRTYYADSVKGRFTISRDNAKNTVFLQMNSLKPEDTAVYYCAAGPYLVDVDYWGQGTQVTVSS | high polyreactivity |
| QVKLVESGGGLVQAGGSLRLSCAASGGIFYFNPMGWYRQEPGKERELVASITWSGGNTYYADSVKGRFTISRDIAKNTVSLQMISLKPEDTAVYYCAAYYVTPIYYYWGQGTQVTVSS | low polyreactivity |
| QVKLVESGGGLVQAGGSLRLSCAASGIIFYPNALGWYRQAPGKERELVAAITSDGSTYYADSVKGRFTISRDNAKNTVYLQMNSLKPEDTAVYYCGAWDDYGYDYWGQGTQVTVSS | low polyreactivity |
| QVKLVESGGGLVQAGGSLRLSCAASGITFVLYAMRWYRQAPGKERELVASITWDATDTYYADSVKGRFTISRDNAKNTVYLQMNSLKPEDTAVYYCNAAYFNYWWLEYDYWGQGTQVTVSS | high polyreactivity |
| QVKLVESGGGLVQAGGSLRLSCAASGLIFIGYAMGWYRPAPGKEMELVASIRGVGSTNYADSVKGRFTISRDNAKNTVYLQMNSLKPEDTAVYYCPNSVDRALYTQTRGDYDYWGQGTQVTVSS | low polyreactivity |
| QVKLVESGGGLVQAGGSLRLSCAASGNILGYNAMGWYRQEPGKERELVAAITQSGGSTYYADSVKGRFTISRDNAKYSVYLQMTSLKPEDTAVYDCAVDCGPFYDPFGYWGQGTQVTVSS | low polyreactivity |
| QVKLVESGGGLVQAGGSLRLSCAASGRICGYYAMGWYRQAPGNERELVAAISWSGGSTYYADSVKGRFTISRDNAMNTVYLQRNSLKPEDTAVYYCNARYPNTRKYDYWGQVTQVTVSS | high polyreactivity |
| QVKLVESGGGLVQAGGSLRLSCAASGRTFGSYAMGRYRQAPGKERELVAAITTDASTNYADSVKGRFTISRDNAKNTIYLQMNSLKPEDTAVYYCAKRNRTYYGYWGQGTQVTVSS | low polyreactivity |
| QVKLVESGGGLVQAGGSLRLSCAASGRTFYIYAMGWYRQAPGKERELVAAITYGGGRTFYADSVKGRFTISRDNAKNTVYLQMNSRKPEDTAVYYCAATVRGKRSTYDYWGQGTQVTVSS | high polyreactivity |
| QVKLVESGGGLVQAGGSLRLSCAASGRTFYSYAMGWYRQAPGKERELVAAISAGGSTYYADSVKGRFTISRDNAKNTVYLQMTSLKPEDTAVYYCAAPVRYTYWRYPYDYWGQGTQVTVSS | high polyreactivity |
| QVKLVESGGGLVQAGGSLRLSCAASGSIFGGNAMGWYRQAPGKEREFVARITKRGGSTDYADSVKGRFTISRDNAKNTVYLQMNSLKPEDTAVYYCATGWTSKVHYRYGYWGQGTQVTVSS | high polyreactivity |
| QVKLVESGGGLVQAGGSLRLSCAASGSIFPRYAMGWYRQAPGKERELVAAITGSGSSTYYADSVKGRFTISRDNAKNTVYFQMNSLKPEDTAVYYCAARKARPPFPHPFDYYWGQGTQVTVSS | low polyreactivity |
| QVKLVESGGGLVQAGGSLRLSCAASGSTFLYYGMGWYRQAPGTERELVATITWRGGRTYYADSVKGRFTISRDNAKNTVYLQMNSLKPEDTAVYYCAARVVGSYRKPYPYGLYYWGQGTQVTVSS | high polyreactivity |
| QVKLVESGGGLVQAGGSLRLSCAASGSTFWGYAMGWYRQEPGKERELVATITTGGSTNYADSVKGRFTISRDNAKNTVYLQMNSLKPEDTAVYYCAKEVDPGSITSYGAGAHFGFDYWGQGTQVTVSS | low polyreactivity |
| QVKLVESGGGLVQAGGSLRLSCADSGLIFGRNARGWYRQAPGKERELVAAISSSGVRTFYADSVKGRFTISRDNAKNTVYLQMNSLKPEDTAVYYCATRGRVYPTKYSLDEDYWGQGTQVTVSS | high polyreactivity |
| QVKLVESGGGLVQAGGSLRLSCADSGSIFGGNTMVWYRQAPGKEREFVAAITWGGNTYYADSVKGRFTISRDNAKNTVYLQTNSLKPEDTAVYYCAAGGRPQYWGRYYYWGQGTQVTVSS | high polyreactivity |

| Sequence | polyreactivity (PSR sort gate) |
| --- | --- |
| QVKLVESGGGLVQAGGSLRLSCADSGSIFQRYAMGWYSQKPGKAREFVAAISGRGGSTYYADSVKGRFTISRDNAKNTVYLQMNSLKPEDTAVYYCAADSSRFYGRPRYYYWGQGTQVTVSS | high polyreactivity |
| QVKLVESGGGLVQAGGSLRLSCAPSGFTFFTYAMGWYRQAPGKERVLVAAITSGGSTNYADSVKGRFTISRDNAKNTVDLQMNSLKPEDTAVYYCAKLAYSDATTVYGYQRSDYWGQGTQVTVSS | low polyreactivity |
| QVKLVESGGGLVQAGGSLRLSCPASGSIFYRNTMGWYRQEPGKERELVASITSGSSTFYADSVKGRFTISRDNAKNTVYLQMNSLKAEDTAVYYCAKRRGSPGFRFRAGGAYGYWGQGTQVTVSS | low polyreactivity |
| QVKLVESGGGLVQAGGSLSLSCAASGRIFSYNAMGWYRQAPGKERELVAVISRSDTSTYYADSVKGRFTISRDNAKNTVYLEMNSLKPEDTAVYYCNADGPTYFRYSGYYYWGQGTQVTVSS | low polyreactivity |
| QVKLVESGGGLVQAGGSLSLSCAATGIIFRFYSMGCYRQAPGKERELVAVITSRSDSTYYADSVKGRFTISRDNAKNTFYLQKNSLKPEDTAVYYCNARYPWYYRYSTYDYWGQGTQVTVSS | high polyreactivity |
| QVKLVESGGGLVQSGGSLRLTSAASGSTFPRYAMGWYRQAPGKEREFVAVIWSGGSTYYADSVKGRLTISRDNAKNTVYLQMNSLKPEDTAVYYCAAEYHTLSLDSGYATHDYWGQGTQVTVSS | low polyreactivity |
| QVKLVESGGVLVQAGGSLRLSCAASAFTFRWYSMGWYRQATGKERELVARISWDGGSTYYADSVKGRFTISRDNAKNTVYVQMNSLKPEDTAVYYCAIDWYYLRRNYDYWGQGTQVTLSS | high polyreactivity |
| QVKLVESVGGLVQAGGSLRFSCAASANTFYYYAMGWYREAPGNDMELVASITWRVGDTYYADSVKGRFTIARDNAKNTVYLQMNSLKPEDTAVYYCAKPRLGRYDSLSYLGDYPGYDYWGQGTQVTVSS | low polyreactivity |
| QVKLVETGGGLVQAGGSLRLSSAASGTTFVHYDMGWYRQAPGNERELVAAISRSGASTYYADSVKGRFTISRDHAKNTVYLQMNSLKPDDTAVYYCATIKYYGRRFNYWGQGTQVTVSS | high polyreactivity |
| QVKRVESGGGLVQAGGSLRLSCAASGSTFYDYAMGWYRPAHGKQRELVAAINGNGDSTYYADSVKGRFTISRDNAKNTVYLQMNSLKPEDTAVYYCAAYLGWGYDYWGQGTQVTVSS | low polyreactivity |
| QVLLQERGGGLVQAGGSLRLSCAASGTISTDIRMGWYRLAPGKEREFVASIDGCSTTYYAYSVKGRFTISRDNAKNTVYLQMNSLKPEDTAMYYCAAREATEFYLYYWGQGTQVTVSS | low polyreactivity |
| QVLLQESGGGLVEAGGSLRLSCAASGTISTDIRMGWYRLAPGKEREFVASIDGGSTTYYADSVKGRFTISRDNAKNTVYLQMNSLKPQDTAMYYCAAGEATEFYLYYWGQGTQVTVSS | low polyreactivity |
| QVLLQESGGGLVQAGGSLRLCCAASGYISGDQYMGWYRQAPGKEREFVAGIGNGTNTNYADSVKGRFTTSRDNAKNTVYLQMNSLKPEDTAVYYCAADPSDGSTLAYWGQGTQVTVSS | high polyreactivity |
| QVLLQESGGGLVQAGGSLRLSCAASGNIFSAGGMGCYRQAPVNERELVAGIGTGTSTNYADSVKGRFTISRDNAKNTVYLQMNSLKPEDTAVYYCAAAYYSGLSHWYWGQGTQVTVSS | low polyreactivity |
| QVLLQESGGGLVQAGGSLRLSCAASGNIFTAGGMGWYRQAPVNERELVAGIGTGTSTNYADRVKGRFTISRDNAKNTVYLQMNSLKPEDTAVYYCAPAYYSGLSHWYWGQGTQVTVSS | low polyreactivity |
| QVLLQESGGGLVQAGGSLRLSCAASGSIFLFYTMGWYRQAPVKEREFVAGITLGTTTYNADSVKGRFTISRDNVKNTVYLQMNSLKPEDTAVYYCAVAVGHYTEFWYWGQGTQVTMSS | high polyreactivity |
| QVLLQESGGGLVQAGGSLRLSCASSGTISTDIRMGWYRLAPGKEREFVASIDGCSTTYYADSVKGRFSISRDNAKNTVYLQMNSLKPEDTSMYYCAAREATEFYLYYWGQGTQVTVSS | low polyreactivity |
| QVLLQESGGGLVQAGGSLRVSCAASGTISTDIRMGSYRLAPGKEREFVASIDGCSTTYYADSVKGRFTISRDNAKNTVYLQMNSLKPEDTAMYYCAAREATEYYLYYWGQGTQVTVSS | low polyreactivity |
| QVLLQESGGLVQAGCSLRMSCAASGSISTALSMGWYRQAPGKERELVSTISDGASTNYADSVKGRFTISRVNAKNTVYLQMNSLKPEDTAVYYCARYYFGNFGWGQGTQVTVSS | high polyreactivity |
| QVLLQESGSGLVQAGGSLRLSCAASGTISTDIRIGLYRLAPRKEREFVASIDGCSTTYYADSVKGRFTISRDNAKNSVYLQMNSLKPEVTAMYYCAAREATEFYLYYWGQGTQVTVSS | low polyreactivity |
| QVLLQESVGGLVQAGGSLRLGCAASGTISPAYYMGRYQQEPGKVRQFVAAITYGTNTYYADSVKGRFTISRDNAKNTVYLQMNSLKPEDTAVYYCSATAGYNGAHDYWGQGTQVTVSS | low polyreactivity |

Source: the nanobody polyreactivity screen of Harvey et al. (2022)
